How the values were obtained:
[1] = molecular target: GST-TORC2 (aa 161-181) Ser171Ala, Q53ET0
[2] = molecular target: T1, GST-TORC2 (aa 161-181), wild-type, Q53ET0 (not fully specified)
T1 chain: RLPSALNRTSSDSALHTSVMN

Sequence of GST-TORC2 (aa 161-181) Ser171Ala, Q53ET0 (Q53ET0 whole entry S171A, looked up, the tested form may be a part): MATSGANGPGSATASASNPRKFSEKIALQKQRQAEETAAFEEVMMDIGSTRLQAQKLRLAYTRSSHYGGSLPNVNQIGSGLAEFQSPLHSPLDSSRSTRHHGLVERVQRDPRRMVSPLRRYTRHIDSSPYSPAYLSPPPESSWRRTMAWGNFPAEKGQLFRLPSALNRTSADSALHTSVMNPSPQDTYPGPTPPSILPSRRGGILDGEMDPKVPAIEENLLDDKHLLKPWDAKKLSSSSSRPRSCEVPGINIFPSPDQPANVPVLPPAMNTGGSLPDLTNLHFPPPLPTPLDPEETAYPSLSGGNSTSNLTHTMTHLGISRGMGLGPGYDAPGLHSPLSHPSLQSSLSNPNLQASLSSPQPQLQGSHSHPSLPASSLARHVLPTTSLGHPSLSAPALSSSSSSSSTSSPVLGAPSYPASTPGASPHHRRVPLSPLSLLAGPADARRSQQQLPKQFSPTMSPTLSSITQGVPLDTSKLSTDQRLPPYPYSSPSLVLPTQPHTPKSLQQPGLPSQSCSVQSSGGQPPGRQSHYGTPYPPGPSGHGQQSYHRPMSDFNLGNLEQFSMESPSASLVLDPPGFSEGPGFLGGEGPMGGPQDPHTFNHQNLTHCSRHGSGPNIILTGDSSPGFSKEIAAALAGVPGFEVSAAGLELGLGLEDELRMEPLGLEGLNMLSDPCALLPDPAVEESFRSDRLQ

B1: Salt Inducible Kinase 2 (SIK2) (protein)
chain: MVMADGPRHLQRGPVRVGFYDIEGTLGKGNFAVVKLGRHRITKTEVAIKIIDKSQLDAVNLEKIYREVQIMKMLDHPHIIKLYQVMETKSMLYLVTEYAKNGEIFDYLANHGRLNESEARRKFWQILSAVDYCHGRKIVHRDLKAENLLLDNNMNIKIADFGFGNFFKSGELLATWCGSPPYAAPEVFEGQQYEGPQLDIWSMGVVLYVLVCGALPFDGPTLPILRQRVLEGRFRIPYFMSEDCEHLIRRMLVLDPSKRLTIAQIKEHKWMLIEVPVQRPVLYPQEQENEPSIGEFNEQVLRLMHSLGIDQQKTIESLQNKSYNHFAAIYFLLVERLKSHRSSFPVEQRLDGRQRRPSTIAEQTVAKAQTVGLPVTMHSPNMRLLRSALLPQASNVEAFSFPASGCQAEAAFMEEECVDTPKVNGCLLDPVPPVLVRKGCQSLPSNMMETSIDEGLETEGEAEEDPAHAFEAFQSTRSGQRRHTLSEVTNQLVVMPGAGKIFSMNDSPSLDSVDSEYDMGSVQRDLNFLEDNPSLKDIMLANQPSPRMTSPFISLRPTNPAMQALSSQKREVHNRSPVSFREGRRASDTSLTQGIVAFRQHLQNLARTKGILELNKVQLLYEQIGPEADPNLAPAAPQLQDLASSCPQEEVSQQQESVSTLPASVHPQLSPRQSLETQYLQHRLQKPSLLSKAQNTCQLYCKEPPRSLEQQLQEHRLQQKRLFLQKQSQLQAYFNQMQIAESSYPQPSQQLPLPRQETPPPSQQAPPFSLTQPLSPVLEPSSEQMQYSPFLSQYQEMQLQPLPSTSGPRAAPPLPTQLQQQQPPPPPPPPPPRQPGAAPAPLQFSYQTCELPSAASPAPDYPTPCQYPVDGAQQSDLTGPDCPRSPGLQEAPSSYDPLALSELPGLFDCEMLDAVDPQHNGYVLVN
- in vitro kinase assay, 32P-labeling [1]: SIK2 was found to phosphorylate wild-type but not Ser171Ala mutant TORC2 in vitro
- in vitro kinase assay, 32P-labeling [2]: SIK2 was found to phosphorylate wild-type but not Ser171Ala mutant TORC2 in vitro

From patent US20100190693
